Assay results taken from patent US20080247944A1 (published 2008).
Values belong to the binder of their own block, whether it stands above or below them.

Columns and labels:
[1] = target: T1, IRTA-2-Fc antigen (fusion protein composed of the extracellular domain of the IRTA-2 linked to the Fc portion … (human, UniProt Q96RD9 16-851)); assay: Biacore SPR, antibody captured by anti-human IgG on CM5 chip, IRTA-2-Fc flowed at 50-400 nM, 1:1 Langmuir fit
T1 construct: not shown: Fc portion of human IgG1
T1 chain: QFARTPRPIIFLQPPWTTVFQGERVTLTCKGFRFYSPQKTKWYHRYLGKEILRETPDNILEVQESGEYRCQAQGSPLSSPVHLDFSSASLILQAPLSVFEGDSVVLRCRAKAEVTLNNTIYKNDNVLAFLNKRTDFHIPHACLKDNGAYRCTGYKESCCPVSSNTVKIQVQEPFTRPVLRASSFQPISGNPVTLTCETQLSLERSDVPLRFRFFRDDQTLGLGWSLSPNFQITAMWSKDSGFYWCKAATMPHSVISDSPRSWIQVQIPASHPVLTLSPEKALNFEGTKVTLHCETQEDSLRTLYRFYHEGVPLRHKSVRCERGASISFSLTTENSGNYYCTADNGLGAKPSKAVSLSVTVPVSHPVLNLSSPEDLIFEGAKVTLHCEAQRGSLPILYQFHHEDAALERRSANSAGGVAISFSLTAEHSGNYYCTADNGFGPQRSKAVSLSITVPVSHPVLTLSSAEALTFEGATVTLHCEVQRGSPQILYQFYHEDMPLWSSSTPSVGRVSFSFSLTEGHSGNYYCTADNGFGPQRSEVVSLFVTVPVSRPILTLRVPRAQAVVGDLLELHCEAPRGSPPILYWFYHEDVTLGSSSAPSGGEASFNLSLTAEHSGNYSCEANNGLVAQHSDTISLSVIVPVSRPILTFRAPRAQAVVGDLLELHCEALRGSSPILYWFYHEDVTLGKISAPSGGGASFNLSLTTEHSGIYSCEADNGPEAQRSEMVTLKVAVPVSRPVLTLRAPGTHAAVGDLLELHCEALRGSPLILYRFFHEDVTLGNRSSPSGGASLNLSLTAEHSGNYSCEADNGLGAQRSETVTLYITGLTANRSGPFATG
Method: Anti-IRTA-2 antibodies were characterized for affinities and binding kinetics by Biacore analysis (Biacore AB, Uppsala, Sweden). Purified anti-IRTA-2 monoclonal antibodies were captured by anti-human IgG antibody covalently linked to a CM5 chip (carboxy methyl dextran coated chip) via primary amines, using standard amine coupling chemistry and kit provided by Biacore. Binding was measured by flowing the IRTA-2-Fc antigen (a fusion protein composed of the extracellular domain of the IRTA-2 linked to the Fc portion of human IgG1) in HBS EP buffer (provided by Biacore AB) at concentrations of 400, 300, 200, 100, and 50 nM at a flow rate of 12 μl/min. The antigen-antibody association kinetics was followed for either 20 minutes (for 8A1) or 5 minutes (for 9D12) and the dissociation kinetics was followed for ether 10 minutes (for 8A1) or 5 minutes (for 9D12). The association and dissociation curves were fit to a 1:1 Langmuir binding model using BIAevaluation software (Biacore AB).

[2] = target: T2, IRTA-3, full length transmembrane form with N-terminal myc tag, on transfected CHO cells (human, UniProt Q96P31 18-734); assay: flow cytometry on CHO cells transfected with myc-tagged IRTA-3; PE-labeled anti-human IgG
T2 construct: also called CHO cells transfected with IRTA-3; human IRTA-3; not shown: myc tag at the N-terminus
T2 sequence: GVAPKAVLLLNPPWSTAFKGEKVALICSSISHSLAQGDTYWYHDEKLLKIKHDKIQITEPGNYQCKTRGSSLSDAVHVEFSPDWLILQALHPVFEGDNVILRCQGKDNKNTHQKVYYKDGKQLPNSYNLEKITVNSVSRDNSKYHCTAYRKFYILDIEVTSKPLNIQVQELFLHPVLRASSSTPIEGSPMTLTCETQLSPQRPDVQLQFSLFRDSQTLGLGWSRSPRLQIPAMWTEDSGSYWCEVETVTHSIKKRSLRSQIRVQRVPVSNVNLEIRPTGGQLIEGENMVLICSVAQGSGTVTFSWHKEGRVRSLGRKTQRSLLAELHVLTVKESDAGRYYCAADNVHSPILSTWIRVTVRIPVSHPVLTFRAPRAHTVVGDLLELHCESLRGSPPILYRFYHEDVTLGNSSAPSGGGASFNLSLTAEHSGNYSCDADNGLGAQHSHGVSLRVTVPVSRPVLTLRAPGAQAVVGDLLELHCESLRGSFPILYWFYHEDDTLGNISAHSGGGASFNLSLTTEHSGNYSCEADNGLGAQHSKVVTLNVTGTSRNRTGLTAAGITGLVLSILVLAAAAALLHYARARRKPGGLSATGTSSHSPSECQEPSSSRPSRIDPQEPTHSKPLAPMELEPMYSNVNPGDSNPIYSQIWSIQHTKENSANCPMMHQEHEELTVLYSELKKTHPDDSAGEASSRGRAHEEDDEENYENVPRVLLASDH
Source text: (§1) Chinese hamster ovary (CHO) cell lines that express either the IRTA-2, IRTA-3 or IRTA-4 protein at the cell surface were developed and used to determine the specificity of the IRTA-2 monoclonal antibodies by flow cytometry. CHO cells were transfected with expression plasmids containing full length cDNA encoding transmembrane forms of IRTA-2, IRTA-3, or IRTA-4. In addition, the transfected proteins contained a myc tag at the N-terminus for detection by anti-myc antibody. Binding of the two anti-IRTA-2 monoclonal antibodies was assessed by incubating the transfected cells with each of the IRTA-2 Abs at a concentration of 10 μg/ml. The cells were washed and binding was detected with a phycoerythrin-labeled anti-human IgG Ab. A murine anti-myc Ab followed by labeled anti-murine IgG was used as the positive control. Secondary antibody alone was used as a negative control. The results are depicted in FIGS. 7A-C. The IRTA-2 monoclonal antibodies 9D12 and 8A1 bound to the CHO line transfected with IRTA-2 but not to CHO lines expressing IRTA-3 or -4, as measured by the mean fluorescent intensity (MFI) of staining.

[3] = target: T3, IRTA-2, full length transmembrane form with N-terminal myc tag, on transfected CHO cells (human, UniProt Q96RD9 16-977); assay: flow cytometry on CHO cells transfected with myc-tagged IRTA-2; antibody at 10 µg/ml; PE-labeled anti-human IgG
T3 construct: also called CHO cells transfected with IRTA-2; human IRTA-2; not shown: myc tag at the N-terminus
T3 chain: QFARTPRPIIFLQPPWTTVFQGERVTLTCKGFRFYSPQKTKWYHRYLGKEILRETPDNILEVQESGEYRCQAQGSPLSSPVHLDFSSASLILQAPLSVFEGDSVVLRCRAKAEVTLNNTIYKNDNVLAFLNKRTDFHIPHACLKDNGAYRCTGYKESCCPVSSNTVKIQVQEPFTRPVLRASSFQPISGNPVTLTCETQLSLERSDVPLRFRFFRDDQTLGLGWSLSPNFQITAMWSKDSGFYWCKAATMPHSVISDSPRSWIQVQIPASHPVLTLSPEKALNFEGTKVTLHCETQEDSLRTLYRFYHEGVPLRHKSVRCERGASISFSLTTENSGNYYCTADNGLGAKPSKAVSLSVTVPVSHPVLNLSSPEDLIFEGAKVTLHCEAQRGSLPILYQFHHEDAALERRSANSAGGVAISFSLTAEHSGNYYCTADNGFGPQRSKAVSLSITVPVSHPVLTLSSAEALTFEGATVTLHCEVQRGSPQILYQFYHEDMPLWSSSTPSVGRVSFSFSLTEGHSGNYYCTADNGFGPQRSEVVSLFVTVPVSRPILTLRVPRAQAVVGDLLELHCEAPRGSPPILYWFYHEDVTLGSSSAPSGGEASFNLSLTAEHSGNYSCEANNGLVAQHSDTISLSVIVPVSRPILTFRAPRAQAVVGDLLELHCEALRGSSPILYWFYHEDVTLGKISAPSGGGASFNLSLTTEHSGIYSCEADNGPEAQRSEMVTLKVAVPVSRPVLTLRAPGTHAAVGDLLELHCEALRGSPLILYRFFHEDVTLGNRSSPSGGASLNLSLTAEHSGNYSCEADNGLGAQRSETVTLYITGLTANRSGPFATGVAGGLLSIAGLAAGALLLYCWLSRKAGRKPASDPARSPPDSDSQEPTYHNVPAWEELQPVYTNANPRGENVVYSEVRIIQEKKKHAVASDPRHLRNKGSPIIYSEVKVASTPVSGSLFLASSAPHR
Source text: as §1

[4] = target: T4, IRTA-4, full length transmembrane form with N-terminal myc tag, on transfected CHO cells (human, UniProt Q96LA5 20-508); assay: flow cytometry on CHO cells transfected with myc-tagged IRTA-4; PE-labeled anti-human IgG
T4 construct: also called CHO cells transfected with IRTA-4; human IRTA-4; not shown: myc tag at the N-terminus
T4 sequence: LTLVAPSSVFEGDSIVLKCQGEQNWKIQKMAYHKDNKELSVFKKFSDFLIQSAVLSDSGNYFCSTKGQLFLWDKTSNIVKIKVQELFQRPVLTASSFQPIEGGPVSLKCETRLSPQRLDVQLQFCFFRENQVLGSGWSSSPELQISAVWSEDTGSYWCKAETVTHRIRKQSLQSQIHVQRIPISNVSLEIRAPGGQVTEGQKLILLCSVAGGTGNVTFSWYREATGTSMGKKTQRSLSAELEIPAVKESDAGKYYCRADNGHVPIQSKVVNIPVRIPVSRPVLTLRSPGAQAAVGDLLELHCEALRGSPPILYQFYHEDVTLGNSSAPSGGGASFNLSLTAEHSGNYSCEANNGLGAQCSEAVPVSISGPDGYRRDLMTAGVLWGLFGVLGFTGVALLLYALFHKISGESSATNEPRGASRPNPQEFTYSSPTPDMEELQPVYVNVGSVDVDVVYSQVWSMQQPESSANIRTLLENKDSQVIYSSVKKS
Source text: as §1

- Kd [1]: 2.1 nM
- koff [1]: 6.9e-05 s⁻¹
- kon [1]: 34000 M⁻¹ s⁻¹
- binding result [2]: no binding (tested: 10 µg/ml)
- binding result [3]: binds
- binding result [4]: no binding (tested: 10 µg/ml)
B1: 9D12 human monoclonal antibody (antibody, V domains shown)
VH: EVQLLESGGGLVQPGGSLRLSCAASGFTFSSSAMSWVRQAPGKGLEWVSSISGSGDTTYYADSVKGRFTISRDNSKNTLYLQMNSLRVEDAALYYCAANWGAAFDIWGQGTMVTVSS
VL: EIVLTQSPATLSLSPGERATLSCRASQSVSSYLAWYQQKPGQAPRLLIYDASNRATGIPARFSGSGSGTDFTLTISSLEPEDFAVYYCQQRSNWPRWTFGQGTKVEIK
notes: Purified from a hybridoma of a HuMAb Mouse; Human IgG (captured and detected with anti-human IgG) with a kappa light chain (VK L6); also called anti-IRTA-2 HuMAb 9D12

- Kd [1]: 20 nM
- koff [1]: 0.00011 s⁻¹
- kon [1]: 5800 M⁻¹ s⁻¹
B2: 8A1 human monoclonal antibody (antibody, V domains shown)
VH: QMQLVQSGAEVKKPGASVKVSCKASGYTFISYDINWVRQATGQGLEWMGWMHPNSGNTGYAQKFQGRVTMTRNTSISTAYMELSSLRSEDTAVYYCARGRGITMVRGGIIYYGMDVWGQGTTVTVSS
VL: AIQLTQSPSSLSASVGDRVTITCRASQGISSALAWYQQKPGKAPKLLIYDASSLESGVPSRFSGSGSGTDFTLTISSLQPEDFATYYCQQFNSYPHTFGQGTKLEIK
notes: Purified from a hybridoma of a KM Mouse; Human IgG (captured and detected with anti-human IgG) with a kappa light chain (VK L18); also called anti-IRTA-2 HuMAb 8A1
